Experimental data from patent US20230218738A1 (Pfizer, published 2023).
Positions count from the first letter of the chain named.

B1: AM22 (antibody, V domains shown)
VH: QVQLVQSGAEVKKPGATVKVSCKISGHTLIKLSIHWVRQAPGKGLEWMGGYEGEVDEIFYAQKFQHRLTVIADTATDTVYMELGRLTSDDTAVYFCGTLGVTVTEAGLGIDDYWGQGTLVTVSS
VL: EIVLTQSPGTLSLSPGERATLSCRASQIVSRNHLAWYQQKPGQAPRLLIFGASSRATGIPVRFSGSGSGTDFTLTINGLAPEDFAVYYCLSSDSSIFTFGPGTKVDFK
B2: MPE8 (antibody, V domains shown)
VH: EVQLVESGGGLVKPGGSLRLSCAASGFTFSSYSMNWVRQAPGKGLEWVSSISASSSYSDYADSAKGRFTISRDNAKTSLFLQMNSLRAEDTAIYFCARARATGYSSITPYFDIWGQGTLVTVSS
VL: QSVVTQTPSVSGAPGQRVTISCTGSSSNIGAGYDVHWYQQLPGTAPKLLIYDNNNRPSGVPDRFSASKSGTSASLAITGLQAEDEADYYCQSYDRNLSGVFGTGTKVTVL
notes: also called MPEG

Tests used:
Experiment in all cases: BLI (Octet), F on anti-HIS tip, 20 nM mAb
[1] = target: T1, RSV F protein mutant pXCS734 (RSV A2, UniProt P03420 26-109)
T1 chain 1: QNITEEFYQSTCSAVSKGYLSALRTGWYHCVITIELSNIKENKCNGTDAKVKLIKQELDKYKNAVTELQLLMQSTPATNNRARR
T1 chain 2: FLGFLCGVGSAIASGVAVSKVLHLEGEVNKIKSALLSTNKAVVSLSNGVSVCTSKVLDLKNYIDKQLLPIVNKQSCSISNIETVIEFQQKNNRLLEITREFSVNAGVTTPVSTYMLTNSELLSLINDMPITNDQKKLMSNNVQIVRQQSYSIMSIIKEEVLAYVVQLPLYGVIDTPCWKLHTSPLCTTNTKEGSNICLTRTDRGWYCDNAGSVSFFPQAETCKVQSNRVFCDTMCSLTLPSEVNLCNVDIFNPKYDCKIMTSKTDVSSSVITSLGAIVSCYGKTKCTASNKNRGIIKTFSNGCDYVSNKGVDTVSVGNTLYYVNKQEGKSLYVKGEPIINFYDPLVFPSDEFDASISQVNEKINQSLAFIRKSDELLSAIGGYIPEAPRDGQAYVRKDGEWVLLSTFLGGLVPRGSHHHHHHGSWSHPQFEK

[2] = target: RSV F protein mutant pXCS781 (RSV A2, UniProt P03420 26-109)
[3] = target: T2, RSV F protein mutant pXCS849 (RSV A2, UniProt P03420 26-109)
T2 chain 1: T1 chain 1 with C30S, T78C
T2 chain 2: T1 chain 2 with C6L, I12C, C52L, V160I, C235N, D350S

[4] = target: T3, RSV F protein mutant pXCS888 (RSV A2, UniProt P03420 26-109)
T3 chain 1: T1 chain 1 with C30S, T78C
T3 chain 2: T1 chain 2 with C6L, I12C, C52L, S54I, V160I, C235N, D350S, E351Q, D353S

[5] = target: T4, RSV F protein mutant pXCS890 (RSV A2, UniProt P03420 26-109)
T4 chain 1: T1 chain 1 with C30S, T78C
T4 chain 2: T1 chain 2 with C6L, I12C, C52L, S54I, V160I, C235N

[6] = target: T5, RSV F protein mutant pXCS851 (RSV A2, UniProt P03420 26-109)
T5 chain 1: T1 chain 1 with C30S, T78C
T5 chain 2: T1 chain 2 with C6L, I12C, C52L, S54I, V160I, C235N, D350S

[7] = target: RSV F protein mutant pXCS740 (RSV A2, UniProt P03420 26-109)
[8] = target: RSV F protein mutant pXCS777 (RSV A2, UniProt P03420 26-109)
[9] = target: RSV F protein mutant pXCS754 (RSV A2, UniProt P03420 26-109)

| Binder | Response (nm shift) [1] [nm] | Response (nm shift) [2] [nm] | Response (nm shift) [3] [nm] | Response (nm shift) [4] [nm] | Response (nm shift) [5] [nm] | Response (nm shift) [6] [nm] | Response (nm shift) [7] [nm] | Response (nm shift) [8] [nm] | Response (nm shift) [9] [nm] |
| --- | --- | --- | --- | --- | --- | --- | --- | --- | --- |
| B1 | 0.284 | 0.423 | 0.43 | 0.434 | 0.538 | 0.508 | 0.172 | 0.121 | 0.298 |
| B2 | 0.818 | 0.876 | 0.908 | 0.878 | 0.999 | 1.02 | 0.546 | 0.27 | 0.676 |
